Measurements as given in patent US20110097323A1 (published 2011).
Residue numbers refer to the chain shown, from its start. Names may count otherwise.

B1: Fc variant D270E G316D P396L R416G (other, UniProt P01857-1 99-330, looked up, name in EU numbering)
chain: EPKSCDKTHTCPPCPAPELLGGPSVFLFPPKPKDTLMISRTPEVTCVVVDVSHEEPEVKFNWYVDGVEVHNAKTKPREEQYNSTYRVVSVLTVLHQDWLNDKEYKCKVSNKALPAPIEKTISKAKGQPREPQVYTLPPSRDELTKNQVSLTCLVKGFYPSDIAVEWESNGQPENNYKTTPLVLDSDGSFFLYSKLTVDKSGWQQGNVFSCSVMHEALHNHYTQKSLSLSPGK
notes: domain: Fc region; positions are EU index; also called D270E P396L G316D R416G
B2: Fc variant F243L P247L N421K (other, UniProt P01857-1 99-330, looked up, name in EU numbering)
chain: B1 chain with F28L, P32L, E55D, D101G, L181P, G201R, N206K
notes: domain: Fc region; positions are EU index
B3: Fc variant F243L R292P V305I (other, UniProt P01857-1 99-330, looked up, name in EU numbering)
chain: B1 chain with F28L, E55D, R77P, V90I, D101G, L181P, G201R
notes: as for B2
B4: Fc variant D270E K392T P396L (other, UniProt P01857-1 99-330, looked up, name in EU numbering)
chain: B1 chain with D101G, K177T, G201R
notes: as for B2
B5: Fc variant R255L D270E P396L (other, UniProt P01857-1 99-330, looked up, name in EU numbering)
chain: B1 chain with R40L, D101G, G201R
notes: as for B2
B6: Fc variant F243L D270E P396L Q419H (other, UniProt P01857-1 99-330, looked up, name in EU numbering)
chain: B1 chain with F28L, D101G, G201R, Q204H
notes: as for B2
B7: Fc variant F243L R255L D270E P396L (other, UniProt P01857-1 99-330, looked up, name in EU numbering)
chain: B1 chain with F28L, R40L, D101G, G201R
notes: as for B2
B8: Fc variant F243L D270E K392T P396L (other, UniProt P01857-1 99-330, looked up, name in EU numbering)
chain: B1 chain with F28L, D101G, K177T, G201R
notes: as for B2
B9: Fc variant F243L R292P V305I P396L (other, UniProt P01857-1 99-330, looked up, name in EU numbering)
chain: B1 chain with F28L, E55D, R77P, V90I, D101G, G201R
notes: as for B2
B10: Fc variant R255L D270E Y300L P396L (other, UniProt P01857-1 99-330, looked up, name in EU numbering)
chain: B1 chain with R40L, Y85L, D101G, G201R
notes: as for B2
B11: Fc variant F243L P247L D270E N421K (other, UniProt P01857-1 99-330, looked up, name in EU numbering)
chain: B1 chain with F28L, P32L, D101G, L181P, G201R, N206K
notes: as for B2
B12: Fc variant F243L R292P Y300L V305I P396L (other, UniProt P01857-1 99-330, looked up, name in EU numbering)
chain: B1 chain with F28L, E55D, R77P, Y85L, V90I, D101G, G201R
notes: domain: Fc region
B13: Fc variant F243L D270E G316D R416G (other, UniProt P01857-1 99-330, looked up, name in EU numbering)
chain: B1 chain with F28L, L181P
notes: as for B2
B14: Fc variant P247L D270E N421K (other, UniProt P01857-1 99-330, looked up, name in EU numbering)
chain: B1 chain with P32L, D101G, L181P, G201R, N206K
notes: as for B2
B15: Fc variant F243L R292P Y300L P396L (other, UniProt P01857-1 99-330, looked up, name in EU numbering)
chain: B1 chain with F28L, E55D, R77P, Y85L, D101G, G201R
notes: as for B2
B16: Fc variant D270E G316D R416G (other, UniProt P01857-1 99-330, looked up, name in EU numbering)
chain: B1 chain with L181P
notes: as for B2
B17: Fc variant R292P V305I P396L (other, UniProt P01857-1 99-330, looked up, name in EU numbering)
chain: B1 chain with E55D, R77P, V90I, D101G, G201R
notes: as for B2
B18: Fc variant R255L D270E R292G P396L (other, UniProt P01857-1 99-330, looked up, name in EU numbering)
chain: B1 chain with R40L, R77G, D101G, G201R
notes: as for B2
B19: Fc variant D270E P396L Q419H (other, UniProt P01857-1 99-330, looked up, name in EU numbering)
chain: B1 chain with D101G, G201R, Q204H
notes: as for B2
B20: ch4D5-FcMT1 (antibody, human IgG1, kappa)
heavy: QVQLQQSGPELVKPGASLKLSCTASGFNIKDTYIHWVKQRPEQGLEWIGRIYPTNGYTRYDPKFQDKATITADTSSNTAYLQVSRLTSEDTAVYYCSRWGGDGFYAMDYWGQGASVTVSSASTKGPSVFPLAPSSKSTSGGTAALGCLVKDYFPEPVTVSWNSGALTSGVHTFPAVLQSSGLYSLSSVVTVPSSSLGTQTYICNVNHKPSNTKVDKRVEPKSCDKTHTCPPCPAPELLGGPSVFLLPPKPKDTLMISRTPEVTCVVVDVSHEDPEVKFNWYVDGVEVHNAKTKPPEEQYNSTLRVVSILTVLHQDWLNGKEYKCKVSNKALPAPIEKTISKAKGQPREPQVYTLPPSRDELTKNQVSLTCLVKGFYPSDIAVEWESNGQPENNYKTTPLVLDSDGSFFLYSKLTVDKSRWQQGNVFSCSVMHEALHNHYTQKSLSLSPGK
light: DIVMTQSHKFMSTSVGDRVSITCKASQDVNTAVAWYQQKPGHSPKLLIYSASFRYTGVPDRFTGSRSGTDFTFTISSVQAEDLAVYYCQQHYTTPPTFGGGTKVEIKRTVAAPSVFIFPPSDEQLKSGTASVVCLLNNFYPREAKVQWKVDNALQSGNSQESVTEQDSKDSTYSLSSTLTLSKADYEKHKVYACEVTHQGLSSPVTKSFNRGEC
B21: ch4D5-wild-type Fc (antibody, human IgG1, kappa)
heavy: not shown
light: B20 light
notes: Chimeric 4D5 antibody; wild-type Fc; also called ch4D5-FcWT; ch4D5-FcWT (wild-type Fc)

Target: CD16A F158 (human, UniProt P08637 17-208, limits assumed)
Experiment: Table 3; relative to wild-type Fc; method not stated

CD16A F158, sequence (P08637 17-208 limits assumed): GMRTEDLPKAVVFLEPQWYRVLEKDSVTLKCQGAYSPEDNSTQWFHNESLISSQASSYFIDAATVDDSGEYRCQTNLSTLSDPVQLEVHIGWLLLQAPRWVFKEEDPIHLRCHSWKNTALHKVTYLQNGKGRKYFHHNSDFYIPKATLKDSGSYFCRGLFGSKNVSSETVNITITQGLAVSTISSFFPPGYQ

Going from B1 to B2, the “binding relative to wild-type Fc (fold)” value rises from 0.94 to 1.71.

Compared with B3, B4 is higher in “binding relative to wild-type Fc (fold)” value: 1.43 for the first, 2.28 for the second.

First: B5
Second: B6
The “binding relative to wild-type Fc (fold)” value of the first is higher: 1.65 for the first, 1.15 for the second.

Going from B7 to B8, the “binding relative to wild-type Fc (fold)” value rises from 1.64 to 2.44.

Going from B9 to B10, the “binding relative to wild-type Fc (fold)” value falls from 2.53 to 1.74.

Going from B11 to B12, the “binding relative to wild-type Fc (fold)” value rises from 3.45 to 8.25.

Going from B13 to B14, the “binding relative to wild-type Fc (fold)” value rises from 1.34 to 2.46.

Compared with B15, B16 is lower in “binding relative to wild-type Fc (fold)” value: 5.62 for the first, 2.49 for the second.

For B17, the “binding relative to wild-type Fc (fold)” value was 1.9.

Target: T1, CD32B (FcγRII-B) (UniProt P31994 43-217, limits assumed)
T1 construct: No species or construct stated
T1 sequence (looked up): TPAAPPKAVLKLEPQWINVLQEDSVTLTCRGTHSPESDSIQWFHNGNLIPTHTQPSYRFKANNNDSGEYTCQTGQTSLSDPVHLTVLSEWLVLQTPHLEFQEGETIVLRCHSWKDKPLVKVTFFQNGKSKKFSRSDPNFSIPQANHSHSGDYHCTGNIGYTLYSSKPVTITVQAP
Experiment: as above

Going from B1 to B2, the “binding relative to wild-type Fc (fold)” value falls from 1.07 to 0.17.

First: B4
Second: B5
The “binding relative to wild-type Fc (fold)” value of the first is lower: 0.79 for the first, 0.87 for the second.

First: B6
Second: B7
The “binding relative to wild-type Fc (fold)” value of the first is lower: 0.26 for the first, 0.38 for the second.

Going from B8 to B18, the “binding relative to wild-type Fc (fold)” value rises from 0.44 to 0.65.

First: B9
Second: B10
The “binding relative to wild-type Fc (fold)” value of the first is lower: 0.4 for the first, 0.87 for the second.

Compared with B11, B12 is higher in “binding relative to wild-type Fc (fold)” value: 0.32 for the first, 1.38 for the second.

First: B19
Second: B13
The “binding relative to wild-type Fc (fold)” value of the first is higher: 0.68 for the first, 0.2 for the second.

Going from B14 to B15, the “binding relative to wild-type Fc (fold)” value rises from 0.58 to 1.07.

Compared with B16, B17 is higher in “binding relative to wild-type Fc (fold)” value: 0.78 for the first, 0.92 for the second.

Target: CD16A V158 (human, UniProt P08637 17-208, limits assumed)
Experiment: as above

CD16A V158, sequence (P08637 17-208 F176V limits assumed): as the sequence (P08637 17-208 limits assumed) above, with F160V counted along it

Going from B1 to B2, the “binding relative to wild-type Fc (fold)” value rises from 1.22 to 1.89.

First: B3
Second: B4
The “binding relative to wild-type Fc (fold)” value of the first is higher: 2.56 for the first, 1.81 for the second.

Going from B5 to B6, the “binding relative to wild-type Fc (fold)” value rises from 1.34 to 1.46.

First: B7
Second: B8
The “binding relative to wild-type Fc (fold)” value of the first is lower: 1.75 for the first, 3.16 for the second.

Compared with B9, B10 is lower in “binding relative to wild-type Fc (fold)” value: 5.37 for the first, 1.52 for the second.

Compared with B11, B12 is higher in “binding relative to wild-type Fc (fold)” value: 2.3 for the first, 10.1 for the second.

First: B19
Second: B13
The “binding relative to wild-type Fc (fold)” value of the first is higher: 1.64 for the first, 1.5 for the second.

Compared with B14, B15 is higher in “binding relative to wild-type Fc (fold)” value: 1.89 for the first, 10.1 for the second.

Compared with B16, B17 is lower in “binding relative to wild-type Fc (fold)” value: 2.18 for the first, 1.85 for the second.

Target: human CD16A (FcγRIII-A) (human, UniProt P08637 17-208, limits assumed)
Experiment: method not stated; reference not named (Fc-optimized against wild-type)

human CD16A (FcγRIII-A), sequence (P08637 17-208 limits assumed): as the sequence (P08637 17-208 limits assumed) above

In the case of B20, the “fold increase in binding” value is reported as 10 fold.

Target: T2, HER-2 (UniProt P04626 23-652, limits assumed)
T2 construct: also called HER2/neu; erbB-2
Experiment: SPR (BIAcore 1000), HER-2 amine-coupled to chip, antibody injected at 6.25-200 nM
Method: The kinetic parameters of the binding of eluted and purified antibodies were analyzed using a BIAcore assay (BIAcore instrument 1000, BIAcore Inc., Piscataway, N.J.) and associated software. HER-2 was immobilized on one of the four flow cells (flow cell 2) of a sensor chip surface through amine coupling chemistry (by modification of carboxymethyl groups with mixture of NHS/EDC) such that about 1000 response units (RU) of receptor was immobilized on the surface. Following this, the unreacted active esters were “capped off” with an injection of 1M Et-NH2.

Work on B21 yielded a koff of ~3.2e-07 s⁻¹.

B21 gave a kon of 170000 M⁻¹ s⁻¹.
